Results from US7192735B2, “Phosphopantetheinyl transferases and uses thereof” (President & Fellows of Harvard College, priority 1995, dated 2007).
Values joined by “and” are separate entries in the source; they are usually repeats but may differ in a detail not shown here. Equal entries are not always repeated. “Also recorded” adds a separate entry of the source. Where two headings read alike, the source gives them in different places.

Experiments:
EntF = target: T1, EntF (Escherichia coli, UniProt P11454); experiment: [3H]-4'-phosphopantetheine incorporation into EntF; type: biochemical, E. coli; conditions: for phosphopantetheinylation of EntF: FIG. 12; for time course of modification of EntF: EntD 100 nM, ACPS and o195 at 15-fold higher concentrations, FIG. 14A
T1 construct: made in house
T1 sequence (P11454 whole entry): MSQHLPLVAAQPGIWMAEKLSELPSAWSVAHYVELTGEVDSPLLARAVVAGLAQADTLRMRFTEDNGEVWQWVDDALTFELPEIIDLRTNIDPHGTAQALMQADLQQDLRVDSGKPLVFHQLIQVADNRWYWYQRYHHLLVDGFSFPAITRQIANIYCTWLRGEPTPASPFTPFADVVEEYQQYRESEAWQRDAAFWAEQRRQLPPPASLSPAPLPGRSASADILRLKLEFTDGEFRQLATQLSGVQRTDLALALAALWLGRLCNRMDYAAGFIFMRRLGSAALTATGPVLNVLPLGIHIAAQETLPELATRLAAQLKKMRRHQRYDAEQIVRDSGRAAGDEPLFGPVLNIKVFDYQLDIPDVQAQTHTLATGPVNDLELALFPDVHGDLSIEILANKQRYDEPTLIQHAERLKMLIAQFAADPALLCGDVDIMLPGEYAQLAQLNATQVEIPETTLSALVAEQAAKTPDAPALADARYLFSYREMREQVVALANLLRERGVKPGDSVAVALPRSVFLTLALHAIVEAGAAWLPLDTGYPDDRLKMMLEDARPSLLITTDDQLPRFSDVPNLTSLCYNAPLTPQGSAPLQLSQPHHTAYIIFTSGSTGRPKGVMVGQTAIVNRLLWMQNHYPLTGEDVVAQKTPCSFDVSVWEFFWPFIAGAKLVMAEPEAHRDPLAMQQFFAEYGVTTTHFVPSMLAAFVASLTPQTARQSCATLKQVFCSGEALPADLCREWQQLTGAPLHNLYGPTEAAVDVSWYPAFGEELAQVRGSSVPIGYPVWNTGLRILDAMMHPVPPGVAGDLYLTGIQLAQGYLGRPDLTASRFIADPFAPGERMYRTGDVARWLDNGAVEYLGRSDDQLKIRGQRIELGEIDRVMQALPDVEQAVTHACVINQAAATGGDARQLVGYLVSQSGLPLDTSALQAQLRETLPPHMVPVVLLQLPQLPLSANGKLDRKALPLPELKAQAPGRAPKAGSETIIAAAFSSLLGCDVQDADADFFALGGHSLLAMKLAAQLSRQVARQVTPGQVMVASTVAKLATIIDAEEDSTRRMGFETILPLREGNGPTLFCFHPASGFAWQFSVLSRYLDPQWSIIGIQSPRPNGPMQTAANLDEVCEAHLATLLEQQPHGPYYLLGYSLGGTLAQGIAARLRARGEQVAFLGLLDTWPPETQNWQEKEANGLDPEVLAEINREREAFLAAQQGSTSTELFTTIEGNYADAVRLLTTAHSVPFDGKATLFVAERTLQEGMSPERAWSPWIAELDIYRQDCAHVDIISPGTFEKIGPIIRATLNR
Procedure: A time course of EntD-catalyzed incorporation of radiolabel into EntF was performed.

[1] = test system: His6-PCP (peptidyl carrier protein domain of TycA); experiment: [3H]-4'-phosphopantetheine transfer radioassay, His6-PCP substrate; conditions: for phosphopantetheinylation of His6-PCP: 25 μM His6-PCP, 60 min at 37° C., FIG. 11
His6-PCP (peptidyl carrier protein domain of TycA), sequence (P09095 528-602): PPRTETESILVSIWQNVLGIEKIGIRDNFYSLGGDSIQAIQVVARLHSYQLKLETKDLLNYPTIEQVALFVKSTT

SrfB1 [2] = target: T2, SrfB1 (Bacillus subtilis, UniProt Q04747); experiment: [14C] amino acid activation by holo-SrfB1 formed with Sfp; type: biochemical; conditions: 2 μM apo-SrfB1, 1.3 μM Sfp, 200 μM CoASH, FIG. 15
T2 construct: hexa-histidine (His6, from pPROEX-1) (N); made in house; host or cells: E. coli AG1574 (plasmid pML 118)
Procedure: The reaction was performed as follows. Apo-SrfB1 (2 μM) was incubated with 200 μM CoASH, 75 mM Tris.HCl pH 8.0, 10 mM MgCl2, 25 mM DTT and 1.3 μM Sfp for 15 min at 37° C. to generate holo-SrfB1. To the SrfB1-Sfp reaction mixture, unlabeled amino acid (valine or aspartic acid) was added to 90 μM final concentration. ATP was added to a final concentration of 2 mM, followed by 0.5 μCi [^14C]Val (281 Ci/mol) or [^14C]Asp (207 Ci/mol). The reaction (115 μL) was incubated for 15 min at 37° C., then stopped by the addition of 800 μL 10% TCA with 15 μL of a 25 mg/mL BSA solution as carrier. The precipitate was collected by centrifugation, washed with 10% TCA, dissolved in 150 μL Tris base, and then counted by liquid scintillation.
Target sequence in this assay (Q04747 92-1307): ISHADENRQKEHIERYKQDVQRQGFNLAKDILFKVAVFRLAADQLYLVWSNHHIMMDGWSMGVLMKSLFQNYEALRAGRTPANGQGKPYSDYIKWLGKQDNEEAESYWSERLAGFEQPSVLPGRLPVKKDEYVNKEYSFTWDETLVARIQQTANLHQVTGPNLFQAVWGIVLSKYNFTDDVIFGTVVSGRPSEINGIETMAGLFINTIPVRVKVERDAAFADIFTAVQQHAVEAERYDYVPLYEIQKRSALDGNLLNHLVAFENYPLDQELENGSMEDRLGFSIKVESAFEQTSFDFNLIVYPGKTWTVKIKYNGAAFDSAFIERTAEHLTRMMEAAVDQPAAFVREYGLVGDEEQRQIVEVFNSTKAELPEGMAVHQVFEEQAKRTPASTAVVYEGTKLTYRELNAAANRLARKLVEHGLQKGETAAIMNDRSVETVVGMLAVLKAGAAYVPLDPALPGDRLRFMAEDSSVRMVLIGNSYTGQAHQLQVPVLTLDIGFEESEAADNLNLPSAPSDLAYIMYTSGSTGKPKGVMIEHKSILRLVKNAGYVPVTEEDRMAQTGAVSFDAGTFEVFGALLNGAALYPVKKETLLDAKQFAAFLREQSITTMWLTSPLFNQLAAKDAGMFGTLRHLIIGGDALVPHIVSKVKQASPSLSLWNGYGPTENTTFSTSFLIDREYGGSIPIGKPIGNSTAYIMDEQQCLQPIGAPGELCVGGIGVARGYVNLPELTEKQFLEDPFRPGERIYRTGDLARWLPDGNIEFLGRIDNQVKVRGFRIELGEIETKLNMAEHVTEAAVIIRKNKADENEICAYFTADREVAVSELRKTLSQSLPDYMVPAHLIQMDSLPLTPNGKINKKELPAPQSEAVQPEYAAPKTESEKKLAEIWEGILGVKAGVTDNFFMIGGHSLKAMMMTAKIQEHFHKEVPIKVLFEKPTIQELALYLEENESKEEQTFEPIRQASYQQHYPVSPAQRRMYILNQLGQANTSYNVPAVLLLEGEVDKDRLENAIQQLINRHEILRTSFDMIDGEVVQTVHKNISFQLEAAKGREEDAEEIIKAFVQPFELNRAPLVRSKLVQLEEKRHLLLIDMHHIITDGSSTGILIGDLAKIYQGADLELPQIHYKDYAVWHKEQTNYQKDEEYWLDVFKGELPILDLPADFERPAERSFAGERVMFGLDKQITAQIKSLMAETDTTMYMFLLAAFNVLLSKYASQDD

SrfB1 [3] = target: T2, SrfB1; experiment: [3H]-4'-phosphopantetheine incorporation into SrfB1; type: biochemical; conditions: FIG. 12
Target sequence in this assay (P39135 whole entry): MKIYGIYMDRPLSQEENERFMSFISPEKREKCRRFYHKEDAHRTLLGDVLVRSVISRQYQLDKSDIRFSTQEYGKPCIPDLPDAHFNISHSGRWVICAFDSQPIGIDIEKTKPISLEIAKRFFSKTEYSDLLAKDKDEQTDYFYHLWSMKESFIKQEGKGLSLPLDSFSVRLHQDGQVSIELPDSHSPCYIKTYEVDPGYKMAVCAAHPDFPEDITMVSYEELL
Target sequence in this assay (Q04747 92-1307): as the sequence (Q04747 92-1307) above

E. coli FAS apo-ACP = E. coli FAS apo-ACP (Escherichia coli, UniProt P0A6A8); conditions: for phosphopantetheinylation of ACP: 25 μM ACP, 60 min at 37° C., FIG. 11
E. coli FAS apo-ACP, sequence (P0A6A8 2-78): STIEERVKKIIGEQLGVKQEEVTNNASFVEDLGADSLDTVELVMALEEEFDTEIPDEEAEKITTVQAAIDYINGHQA

Streptomycete ACPs = experiment: modification of apo-form of Streptomycete ACPs; type: biochemical
apo-Dcp = experiment: in vitro phosphopantetheinylation of D-Alanyl carrier protein; type: biochemical, Lactobacillus casei
Procedure: In another example, varying concentrations of apo-Dcp were incubated with ACPS at 37° C. to determine extent of phosphopantetheinylation.
The assays were incubated overnight at 37° C.
The [^3H] holo-Dcp formed was quantitated by dividing dpm by specific activity of pantetheinyl moiety of CoA which is equal to 4.83×10^14 dmp/mol.

apo-ACP [4] = target: T3, apo-ACP (Escherichia coli, UniProt P0A6A8+P24224); conditions: for Km: steady-state kinetics, [3H]CoA radioassay
T3 sequence (P0A6A8 2-78, one chain of several): as the sequence (P0A6A8 2-78) above

apo-ACP [5] = target: T3, apo-ACP; conditions: 50 μM apo-ACP, 1.8 μM ACPS, 210 μM [3H]CoA, 36 hour, 37° C., replicates

B1: Sfp: B. subtilis protein (26.1 kD) involved in surfactin biosynthesis, shown to be a phosphopantetheinyl transferase (protein)
chain: VIGAFDSQPIGIDIEKTKPISLEIAKRFFSKTEYSDLLAKDKDEQTDYFYHLWSMKESFIKQEGKGLSLPLDSFSVRLHQDGQVSIELPDSHSPCYIKTYEVDPGYKMAVCAAHPDFPEDITMVSYEELL
- phosphopantetheinylation of EntF (EntF): can catalyze modification
- phosphopantetheinylation of PCP at different substrate concentrations ([1]; 13 nM Sfp, 15 minute reaction, FIG. 13): capable of phosphopantetheinylating a substrate, such as PCP, in a wide range of concentrations
- phosphopantetheinylation of His6-PCP [1]: capable of transferring phosphopantetheine groups; also recorded: efficiently catalyzes modification
- increase of [14C]-L-valine-holo-SrfB1 covalent complex following incubation with Sfp (SrfB1 [2]): about 14 fold
- phosphopantetheinylation of SrfB1 (SrfB1 [3]): capable of phosphopantetheinylating; also recorded: efficiently catalyzes modification

B2: o195: E. coli ORF protein of unknown function, homologous to ACPS, shown to phosphopantetheinylate substrates (protein)
chain: MYRIVLGKVSTLSAAPLPPGLREQAPQGPRRERWLAGRALLSHTLSPLPEIIYGEQGKPAFAPEMPLWFNLSHSGDDIALLLSDEGEVGCDIEVIRPRANWRWLANAVFSLGEHAEMDAVHPDQQLEMFWRIWTRKEAIVKQRGGSAWQIVSVDSTYHSSLSVSHCQLENLSLAICTPTPFTLTADSVQWIDSVN
- phosphopantetheinylation of ACP (E. coli FAS apo-ACP): capable of transferring phosphopantetheine groups
- time course of modification of EntF (EntF): almost no modification
- phosphopantetheinylation of His6-PCP [1]: capable of transferring phosphopantetheine groups

B3: ACPS: recombinant E. coli holo-acyl carrier protein synthase, 14 kDa dpj gene product overproduced in E. coli BL21(DE3)pDPJ (protein)
chain: MAILGLGTDIVEIARIEAVIARSGDRLARRVLSDNEWAIWKTHHQPVRFLAKRFAVKEAAAKAFGTGIRNGLAFNQFEVFNDELGKPRLRLWGEALKLAEKLGVANMHVTLADERHYACATVIIES
- time course of modification of apo-ACP (E. coli FAS apo-ACP; FIG. 14B): almost exclusive modification
- modification of apo-form of Streptomycete ACPs (frenolicin, granaticin, oxytetracycline, tetracenomycin) (Streptomycete ACPs): modifies the apo-form
- phosphopantetheinylation of Dcp (apo-Dcp): capable of phosphopantetheinylating Dcp
- radioactivity incorporated into the protein fraction, Dcp + ACPS (apo-Dcp; 40 μM apo-Dcp, 1.8 μM ACPS, 210 μM [3H]CoA, 36 hour, 37° C., replicates): 1.04 × 10^6 (±0.93%) and 1.00 × 10^6 (±0.77%) and 0.98 × 10^6 (±0.95%)
- amount of holo-Dcp formed versus amount of apo-Dcp (apo-Dcp; varying apo-Dcp, 1.8 μM ACPS, overnight at 37° C., FIG. 4): increases linearly
- time course of modification of EntF (EntF): almost no modification
- substrate inhibition at apo-ACP concentrations (apo-ACP [4]): greater than 2 μM
- specific activity (apo-ACP [4]; purification from E. coli BL21(DE3)pDPJ, fraction Crude extract): 200 mU · mg^−1
- specific activity (apo-ACP [4]; purification from E. coli BL21(DE3)pDPJ, fraction DE-52): 250 mU · mg^−1
- specific activity (apo-ACP [4]; purification from E. coli BL21(DE3)pDPJ, fraction SP-Sepharose): 320 mU · mg^−1
- specific activity (apo-ACP [4]; purified protein, >95% purity): 320 mU/mg
- Km (apo-ACP [4]; read-out: Km value for CoA): 50 µM
- Km (apo-ACP [4]; read-out: Km value for apo-ACP (upper limit)): ≤ 1 µM
- apparent kcat value (apo-ACP [4]; saturating CoA and 50 μM apo-ACP): about 10 min^−1
- radioactivity incorporated into the protein fraction, ACP + ACPS (apo-ACP [5]): 2.21 × 10^6 (±.63%) and 2.13 × 10^6 (±.65%) and 2.20 × 10^6 (±.64%)

B4: EntD: E. coli protein (23.6 kD) involved in enterobactin biosynthesis, phosphopantetheinyl transferase (protein)
chain: SRQPIGIDIEEIFSVQTARELTDNIITPAEHERLADCGLAFSLALTLAFSAKESAFKASEIQTDAGFLDYQIISWNKQQVIIHRENEMFAVHWQIKEKIVITLCQHD
- phosphopantetheinylation of ACP (E. coli FAS apo-ACP): capable of transferring phosphopantetheine groups
- time course of modification of EntF (EntF): modified effectively
- phosphopantetheinylation of EntF (EntF): capable of phosphopantetheinylating
- phosphopantetheinylation of His6-PCP [1]: capable of transferring phosphopantetheine groups
